Test system: cells of the human embryonic stem cell line H1 differentiated to stage 5
Experiment: Real-time PCR of pancreatic endoderm/endocrine genes after factors spiked into stage 5 media
Format: cell-based
Method: Cells of the human embryonic stem cell line H1 (hESC H1, passage 40) were seeded as single cells at 1×10^5 cells/cm^2 on MATRIGEL™ (1:30 dilution; BD Biosciences, NJ)-coated dishes in mTeSR®1 media (StemCell Technologies, Vancouver, Canada) supplemented with 10 μM of Y27632 (Rock inhibitor, Catalog No. Y0503, SigmaAldrich, St. Louis, Mo.). Forty-eight hours post seeding, cultures were washed in incomplete PBS (phosphate buffered saline without Mg or Ca). Cultures were differentiated into pancreatic endoderm/endocrine lineages as follows: • a) Stage 1 (Definitive Endoderm (DE)—3 days): Cells were cultured for one day in stage 1 media: MCDB-131 medium (Catalog No. 10372-019, Invitrogen, Carlsbad, Calif.) supplemented with 0.1% fatty acid-free BSA (Catalog No. 68700, Proliant, Ankeny, Iowa), 0.0012 g/ml sodium bicarbonate (Catalog No. S3187, SigmaAldrich, St. Louis, Mo.), 1× GlutaMax™ (Invitrogen Catalog No. 35050-079), 4.5 mM D-Glucose (SigmaAldrich Catalog No. G8769), 100 ng/ml GDF8 (R&D Systems, Minneapolis, Minn.) and 1 μM MCX compound (a GSK3B inhibitor, 14-Prop-2-en-1-yl-3,5,7,14,17,23,27-heptaazatetracyclo [19.3.1.1˜2,6˜0.1˜8,12˜]heptacosa-1(25),2(27),3,5,8(26),9,11,21,23-nonaen-16-one, US Patent Application Publication No. 2010-0015711; incorporated herein by reference in its entirety). Cells were then cultured for additional day in MCDB-131 medium supplemented with 0.1% fatty acid-free BSA, 0.0012 g/ml sodium bicarbonate, 1× GlutaMax™, 4.5 mM D-Glucose, 100 ng/ml GDF8, and 0.1 μM MCX compound. Cells were then cultured for an additional day in MCDB-131 medium supplemented with 0.1% fatty acid-free BSA, 0.0012 g/ml sodium bicarbonate, 1× GlutaMax™, 4.5 mM D-Glucose, and 100 ng/ml GDF8, then • b) Stage 2 (Primitive gut tube—2 days): Cells were treated for two days with MCDB-131 medium supplemented with 0.1% fatty acid-free BSA; 0.0012 g/ml sodium bicarbonate; 1× GlutaMax™; 4.5 mM D-Glucose; 0.25 mM ascorbic acid (Sigma, St. Louis, Mo.) and 25 ng/ml FGF7 (R & D Systems, Minneapolis, Minn.), then • c) Stage 3 (Foregut—2 days): Cells were treated with MCDB-131 medium supplemented with a 1:200 dilution of ITS-X (Invitrogen); 4.5 mM Glucose; 1× GlutaMax™; 0.0017 g/ml sodium bicarbonate; 2% fatty acid-free BSA; 0.25 μM SANT-1 (Sigma, St. Louis, Mo.); 10 ng/ml of Activin-A (R & D Systems); 1 μM retinoic acid (RA; Sigma); 25 ng/ml FGF7; 0.25 mM ascorbic acid; 200 nM TPB (a PKC activator; Catalog No. 565740; EMD Chemicals, Gibstown, N.J.); 10 μM forskolin (FSK, Sigma), and 100 nM LDN (a BMP receptor inhibitor; Catalog No. 04-0019; Stemgent; San Diego, Calif.) for day 1. On day 2, cells were treated with MCDB-131 medium supplemented with a 1:200 dilution of ITS-X; 4.5 mM Glucose; 1× GlutaMax™; 0.0017 g/ml sodium bicarbonate; 2% fatty acid-free BSA; 0.25 μM SANT-1; 10 ng/ml of Activin A; 1 μM RA; 25 ng/ml FGF7; 0.25 mM ascorbic acid, 200 nM TPB, 10 μM forskolin and 10 nM LDN, then • d) Stage 4 (Pancreatic foregut precursor—2 days); Cells were treated with MCDB-131 medium supplemented with a 1:200 dilution of ITS-X; 4.5 mM Glucose; 1× GlutaMax™; 0.0015 g/ml sodium bicarbonate; 2% fatty acid-free BSA; 0.25 μM SANT-1; 50 nM RA; 50 nM LDN-193189; 10 μM forskolin; 0.25 mM ascorbic acid; and 100 nM TPB for two days, then • e) Stage 5 (Pancreatic endoderm/endocrine—3 days): Stage 4 cells were treated with MCDB-131 medium supplemented with a 1:200 dilution of ITS-X; 20 mM Glucose; 1× GlutaMax™; 0.0015 g/ml sodium bicarbonate; 2% fatty acid-free BSA; 0.25 μM SANT-1; 50 nM RA; 10 μM forskolin; 0.25 mM ascorbic acid for three days, with the addition of 100 nM ALk5 inhibitor SD-208 (disclosed in Molecular Pharmacology 2007, 72:152-161) for days 2-3 only.
At day 1 of stage 5, the factors listed in Table I, below, were spiked into the media and upon completion of S5 (day 3 of stage 5) mRNA was collected for PCR analysis of relevant pancreatic endoderm/endocrine genes. As a control, cultures were treated only with the S5 media listed above. […]

B1: Ephrin-A4: Ephrin ligand protein, R & D Systems catalogue number 369-EA (protein, UniProt P52798 26-170, looked up)
Ephrin-A4: LRHVVYWNSSNPRLLRGDAVVELGLNDYLDIVCPHYEGPGPPEGPETFALYMVDWPGYESCQAEGPRAYKRWVCSLPFGHVQFSEKIQRFTPFSLGFEFLPGETYYYISVPTPESSGQCLRLQVSVCCKERKSESAHPVGSPGES
Ephrin-A4 100 ng/ml at S5, mRNA at day 3 of S5, vs control, FIG. 1E
  PDX1 expression: minimal impact
Ephrin-A4 100 ng/ml at S5, mRNA at day 3 of S5, vs control, FIG. 1G
  NGN3 expression: minimal impact
Factor spiked at day 1 of stage 5, mRNA at day 3 of S5, vs control cultures, Table I: Ephrin-A4 100 ng/ml, Activin A and Activin C 20 ng/ml, FIG. 1A
  mRNA expression of insulin: enhanced
Factor spiked at day 1 of stage 5, mRNA at day 3 of S5, vs control cultures, Table I: Ephrin-A4 100 ng/ml, Semaphorin 3a 50 ng/ml, Epigen 20 ng/ml, FIG. 1F
  mRNA expression of NKX6.1: enhanced

Source: patent publication US10208288B2, “Differentiation of human embryonic stem cells into pancreatic endocrine cells” (Janssen Biotech, Inc., priority 2012, dated 2019)
